Molecular target: HER2 on HER2-expressing SKOV3 and BT474 cells (human (endogenous in SKOV3 and BT474)) (UniProt P04626)
Experiment: radioligand binding; LigandTracer Yellow, living SKOV3 cells (10^6) on a segment of a dish; radiolabeled ADAPT at 0.333 and 1 nM; association and dissociation recorded, duplicates; InteractionMap software, two types of interaction

Row | KD1 (first of two types of interaction) [pM] | KD2 (second of two types of interaction) [nM] | Substance
1 | 174 | – | ^99mTc-DEAVDANS-ADAPT6-GSSC (designed binder)
2 | 32.3 | 1.31 | ^111In-DEAVDANS-ADAPT6-GSSC-DOTA (designed binder)

Reference: article PMC5676751
